Assay results reported in publication PMC9482650, “Quantitative fragmentomics allow affinity mapping of interactomes” (Nature Communications, 2022).

Key:
Test in all cases: holdup assay
Parameters in all cases: key: below the threshold = too weak to quantify, mostly under pKd 3.1 to 4
[1] = target: T1, TIAM2, Q8IVF5
T1 sequence (Q8IVF5 885-986, limits assumed, looked up): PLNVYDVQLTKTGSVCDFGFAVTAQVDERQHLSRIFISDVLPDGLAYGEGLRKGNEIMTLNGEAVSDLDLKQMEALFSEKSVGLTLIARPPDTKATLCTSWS

[2] = target: T2, APBA1_1, Q02410
T2 sequence (Q02410 651-752, limits assumed, looked up): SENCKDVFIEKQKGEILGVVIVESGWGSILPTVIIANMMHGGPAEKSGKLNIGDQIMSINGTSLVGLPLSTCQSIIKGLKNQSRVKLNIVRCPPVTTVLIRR

[3] = target: HTRA2, O43464
[4] = target: PDLIM1, O00151
[5] = target: FRMPD4, Q14CM0
[6] = target: MAST2, Q6P0Q8
[7] = target: PDZRN4_1, Q6ZMN7
[8] = target: Inadl_1, Q8NI35
[9] = target: T3, GRIP1_4, Q9Y3R0
T3 sequence (Q9Y3R0 467-571, limits assumed, looked up): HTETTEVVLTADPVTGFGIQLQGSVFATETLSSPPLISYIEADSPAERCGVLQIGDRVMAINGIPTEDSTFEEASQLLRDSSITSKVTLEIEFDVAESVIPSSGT

[10] = target: DLG4_2, P78352
[11] = target: T4, DFNB31_3, Q9P202
T4 sequence (Q9P202 811-907, limits assumed, looked up): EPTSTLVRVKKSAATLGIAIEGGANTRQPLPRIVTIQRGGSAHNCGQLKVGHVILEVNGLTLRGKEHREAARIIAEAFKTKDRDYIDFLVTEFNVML

[12] = target: T5, APBA3_1, O96018
T5 sequence (O96018 389-490, limits assumed, looked up): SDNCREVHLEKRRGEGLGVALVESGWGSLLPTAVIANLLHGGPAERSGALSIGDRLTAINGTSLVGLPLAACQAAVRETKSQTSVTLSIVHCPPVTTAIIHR

[13] = target: CASK, O14936
[14] = target: IL16_4, Q14005
[15] = target: NHERF4_4, Q86UT5
[16] = target: T6, MPDZ_10, O75970
T6 sequence (O75970 1624-1722, limits assumed, looked up): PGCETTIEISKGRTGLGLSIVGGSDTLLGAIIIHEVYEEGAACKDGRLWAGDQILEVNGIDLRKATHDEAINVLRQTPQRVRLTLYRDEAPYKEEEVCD

[17] = target: DLG1_3, Q12959
[18] = target: T7, NHERF3_3, Q5T2W1
T7 sequence (Q5T2W1 238-333, limits assumed, looked up): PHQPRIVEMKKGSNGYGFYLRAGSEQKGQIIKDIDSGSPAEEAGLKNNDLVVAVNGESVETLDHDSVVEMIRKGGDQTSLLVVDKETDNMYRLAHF

[19] = target: Inadl_6, Q8NI35
[20] = target: GRIP2_6, Q9C0E4
[21] = target: GOPC, Q9HD26
[22] = target: TJP1_3, Q07157
[23] = target: T8, LIN7B, Q9HAP6
T8 sequence (Q9HAP6 88-185, limits assumed, looked up): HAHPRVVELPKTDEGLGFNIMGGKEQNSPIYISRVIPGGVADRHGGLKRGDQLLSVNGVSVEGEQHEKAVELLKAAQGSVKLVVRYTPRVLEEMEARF

[24] = target: T9, SIPA1L2, Q9P2F8
T9 sequence (Q9P2F8 945-1036, limits assumed, looked up): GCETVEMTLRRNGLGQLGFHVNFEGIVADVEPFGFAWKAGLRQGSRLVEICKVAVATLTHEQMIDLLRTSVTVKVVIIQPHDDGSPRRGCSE

[25] = target: T10, LRRC7, Q96NW7
T10 sequence (Q96NW7 1440-1537, limits assumed, looked up): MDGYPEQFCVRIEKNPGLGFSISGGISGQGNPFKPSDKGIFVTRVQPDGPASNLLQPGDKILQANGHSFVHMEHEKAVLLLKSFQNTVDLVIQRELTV

[26] = target: T11, PDZD2_2, O15018
T11 sequence (O15018 329-429, limits assumed, looked up): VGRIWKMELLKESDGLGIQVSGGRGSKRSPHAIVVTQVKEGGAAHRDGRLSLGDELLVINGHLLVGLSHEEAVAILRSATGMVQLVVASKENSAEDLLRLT

[27] = plain residues with an end cap or a label only (N-terminal biotin on a linker: ado-ado)
[28] = plain residues with an end cap or a label only (N-terminal biotin on a linker: ahx)
[29] = plain residues with an end cap or a label only (N-terminal biotin on a linker: ttds)

Chain of DLG1_3, Q12959 (Q12959 457-571): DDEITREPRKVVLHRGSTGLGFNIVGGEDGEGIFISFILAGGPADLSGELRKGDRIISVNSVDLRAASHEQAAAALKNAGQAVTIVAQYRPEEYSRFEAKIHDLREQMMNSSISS
Chain of DLG4_2, P78352 (P78352 155-259): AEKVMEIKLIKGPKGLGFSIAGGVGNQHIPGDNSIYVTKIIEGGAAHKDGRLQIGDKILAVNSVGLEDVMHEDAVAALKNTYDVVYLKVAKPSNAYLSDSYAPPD
Chain of NHERF4_4, Q86UT5 (Q86UT5 464-550): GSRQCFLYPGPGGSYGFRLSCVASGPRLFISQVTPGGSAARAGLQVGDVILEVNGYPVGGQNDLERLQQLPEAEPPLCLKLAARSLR
Chain of PDLIM1, O00151 (O00151 1-87): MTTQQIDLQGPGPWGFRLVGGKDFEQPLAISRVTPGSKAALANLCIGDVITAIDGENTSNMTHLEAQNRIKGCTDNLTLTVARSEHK
Chain of Inadl_6, Q8NI35 (Q8NI35 1058-1167): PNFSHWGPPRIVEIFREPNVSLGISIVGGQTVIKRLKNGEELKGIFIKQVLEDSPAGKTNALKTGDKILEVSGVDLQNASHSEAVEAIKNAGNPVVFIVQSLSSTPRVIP
Chain of TJP1_3, Q07157 (Q07157 416-512): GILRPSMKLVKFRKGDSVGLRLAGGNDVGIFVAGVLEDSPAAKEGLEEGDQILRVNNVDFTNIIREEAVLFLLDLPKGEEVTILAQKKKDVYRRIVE
Chain of FRMPD4, Q14CM0 (Q14CM0 67-160): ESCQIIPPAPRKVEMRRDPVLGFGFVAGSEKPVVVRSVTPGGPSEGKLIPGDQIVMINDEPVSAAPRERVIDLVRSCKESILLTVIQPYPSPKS
Chain of HTRA2, O43464 (O43464 355-458): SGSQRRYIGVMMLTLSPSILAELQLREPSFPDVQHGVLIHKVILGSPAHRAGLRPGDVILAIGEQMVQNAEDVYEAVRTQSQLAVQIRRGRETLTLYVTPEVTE
Chain of GRIP2_6, Q9C0E4 (Q9C0E4 648-740): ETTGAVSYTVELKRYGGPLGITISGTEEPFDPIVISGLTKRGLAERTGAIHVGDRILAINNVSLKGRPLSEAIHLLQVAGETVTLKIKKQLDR
Chain of IL16_4, Q14005 (Q14005 1229-1329): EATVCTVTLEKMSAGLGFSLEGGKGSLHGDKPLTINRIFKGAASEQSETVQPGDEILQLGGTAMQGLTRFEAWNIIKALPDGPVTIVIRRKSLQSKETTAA
Chain of PDZRN4_1, Q6ZMN7 (Q6ZMN7 213-318): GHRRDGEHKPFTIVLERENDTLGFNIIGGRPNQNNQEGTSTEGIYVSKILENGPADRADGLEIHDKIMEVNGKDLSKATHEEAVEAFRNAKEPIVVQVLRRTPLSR
Chain of CASK, O14936 (O14936 487-570): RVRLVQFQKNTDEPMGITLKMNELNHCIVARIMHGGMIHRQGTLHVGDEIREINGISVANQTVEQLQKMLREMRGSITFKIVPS
Chain of MAST2, Q6P0Q8 (Q6P0Q8 1099-1202): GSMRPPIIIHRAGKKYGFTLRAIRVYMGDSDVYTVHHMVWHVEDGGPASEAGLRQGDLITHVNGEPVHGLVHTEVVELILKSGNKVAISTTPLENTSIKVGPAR
Chain of Inadl_1, Q8NI35 (Q8NI35 113-229): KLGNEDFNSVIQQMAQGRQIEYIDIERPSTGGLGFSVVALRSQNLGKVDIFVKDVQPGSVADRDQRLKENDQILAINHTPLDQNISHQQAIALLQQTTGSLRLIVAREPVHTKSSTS

SQDPKKPSRV [CBY2, Q8NA61]
pKd [1, 27]: below the threshold
pKd [2, 27]: below the threshold
pKd [3, 27]: below the threshold
pKd [4, 27]: below the threshold
pKd [5, 27]: below the threshold
pKd [6, 27]: below the threshold
pKd [7, 27]: below the threshold
pKd [8, 27]: below the threshold
pKd [9, 27]: below the threshold
pKd [10, 27]: 3.49
pKd [11, 27]: below the threshold
pKd [12, 27]: below the threshold
pKd [13, 27]: below the threshold
pKd [14, 27]: below the threshold
pKd [15, 27]: 3.67
pKd [16, 27]: 3.7
pKd [17, 27]: below the threshold
pKd [18, 27]: below the threshold
pKd [19, 27]: below the threshold
pKd [20, 27]: below the threshold
pKd [21, 27]: 3.75
pKd [22, 27]: below the threshold
pKd [23, 27]: below the threshold
pKd [24, 27]: below the threshold
pKd [25, 27]: below the threshold
pKd [26, 27]: below the threshold

HSATSVHTSV [MTMR1, Q13613]
pKd [1, 28]: below the threshold
pKd [2, 28]: below the threshold
pKd [3, 28]: below the threshold
pKd [4, 28]: 3.72
pKd [5, 28]: below the threshold
pKd [6, 28]: 4.38
pKd [7, 28]: below the threshold
pKd [8, 28]: below the threshold
pKd [9, 28]: below the threshold
pKd [10, 28]: 4.7
pKd [11, 28]: below the threshold
pKd [12, 28]: below the threshold
pKd [13, 28]: below the threshold
pKd [14, 28]: below the threshold
pKd [15, 28]: below the threshold
pKd [16, 28]: 3.81
pKd [17, 28]: 3.56
pKd [18, 28]: below the threshold
pKd [19, 28]: below the threshold
pKd [20, 28]: below the threshold
pKd [21, 28]: 3.75
pKd [22, 28]: below the threshold
pKd [23, 28]: below the threshold
pKd [24, 28]: below the threshold
pKd [25, 28]: below the threshold
pKd [26, 28]: 4.23

DLDEEEDTHL [PODXL, O00592]
pKd [1, 29]: below the threshold
pKd [2, 29]: below the threshold
pKd [3, 29]: 3.52
pKd [4, 29]: 3.52
pKd [5, 29]: 4.7
pKd [6, 29]: 5.31
pKd [7, 29]: below the threshold
pKd [8, 29]: below the threshold
pKd [9, 29]: below the threshold
pKd [10, 29]: below the threshold
pKd [11, 29]: below the threshold
pKd [12, 29]: below the threshold
pKd [13, 29]: below the threshold
pKd [14, 29]: below the threshold
pKd [15, 29]: below the threshold
pKd [16, 29]: below the threshold
pKd [17, 29]: below the threshold
pKd [18, 29]: below the threshold
pKd [19, 29]: below the threshold
pKd [20, 29]: below the threshold
pKd [21, 29]: below the threshold
pKd [22, 29]: below the threshold
pKd [23, 29]: below the threshold
pKd [24, 29]: below the threshold
pKd [25, 29]: below the threshold
pKd [26, 29]: 4

IGHEDLETAV [DGKI, O75912]
pKd [1, 27]: below the threshold
pKd [2, 27]: below the threshold
pKd [3, 27]: below the threshold
pKd [4, 27]: below the threshold
pKd [5, 27]: 3.9
pKd [6, 27]: 5.47
pKd [7, 27]: 4.7
pKd [8, 27]: below the threshold
pKd [9, 27]: below the threshold
pKd [10, 27]: 4.97
pKd [11, 27]: 3.92
pKd [12, 27]: below the threshold
pKd [13, 27]: below the threshold
pKd [14, 27]: 3.52
pKd [15, 27]: below the threshold
pKd [16, 27]: below the threshold
pKd [17, 27]: 3.68
pKd [18, 27]: below the threshold
pKd [19, 27]: 4.1
pKd [20, 27]: below the threshold
pKd [21, 27]: 3.58
pKd [22, 27]: below the threshold
pKd [23, 27]: 4.11
pKd [24, 27]: below the threshold
pKd [25, 27]: 3.93
pKd [26, 27]: 5.25

GARVSKETPL [MAPK12, P53778]
pKd [1, 29]: below the threshold
pKd [2, 29]: below the threshold
pKd [3, 29]: below the threshold
pKd [4, 29]: below the threshold
pKd [5, 29]: 4.1
pKd [6, 29]: 4.78
pKd [7, 29]: 4.71
pKd [8, 29]: below the threshold
pKd [9, 29]: below the threshold
pKd [10, 29]: 4.45
pKd [11, 29]: below the threshold
pKd [12, 29]: below the threshold
pKd [13, 29]: below the threshold
pKd [14, 29]: 3.58
pKd [15, 29]: below the threshold
pKd [16, 29]: below the threshold
pKd [17, 29]: 3.95
pKd [18, 29]: below the threshold
pKd [19, 29]: 3.55
pKd [20, 29]: below the threshold
pKd [21, 29]: below the threshold
pKd [22, 29]: below the threshold
pKd [23, 29]: 3.86
pKd [24, 29]: below the threshold
pKd [25, 29]: below the threshold
pKd [26, 29]: below the threshold
